{
  "source": "patent US8404644B2",
  "about": "“Agents with angiogenic and wound healing activity” (Meat & Livestock Australia Limited, priority 2007, dated 2013)",
  "molecules": {"B1": {"name": "Gamma S crystallin: gamma S gel filtration fraction of bovine crystallin extract (protein)", "chain": "SKAGTKITFFEDKNFQGRHYDSDCDCADFHMYLSRCNSIRVEGGTWAVYERPNFAGYMYILPRGEYPEYQHWMGLNDRLSSCRAVHLSSGGQYKLQIFEKGDFNGQMHETTEDCPSIMEQFHMREVHSCKVLEGAWIFYELPNYRGRQYLLDKKEYRKPVDWGAASPAVQSFRRIVE"}, "B2": {"name": "Wound Heal 3: bovine αB crystallin, DEAE Sepharose fast flow fractions 37-47; Group D of Example 3 (protein)", "chain": "MDIAIHHPWIRRPFFPFHSPSRLFDQFFGEHLLESDLFPASTSLSPFYLRPPSFLRAPSWIDTGLSEMRLEKDRFSVNLDVKHFSPEELKVKVLGDVIEVHGKHEERQDEHGFISREFHRKYRIPADVDPLAITSSLSSDGVLTVNGPRKQASGPERTIPITREEKPAVTAAPKK"}, "B3": {"name": "βB2 crystallin: bovine βB2 crystallin protein (SEQ ID No. 1); in b236 the value is that of Wound Heal 2 (protein)", "chain": "ASDHQTQAGKPQPLNPKIIIFEQENFQGHSHELNGPCPNLKETGVEKAGSVLVQAGPWVGYEQANCKGEQFVFEKGEYPRWDSWTSSRRTDSLSSLRPIKVDSQEHKITLYENPNFTGKKMEVIDDDVPSFHAHGYQEKVSSVRVQSGTWVGYQYPGYRGLQYLLEKGDYKDSGDFGAPQPQVQSVRRIRDMQWHQRGAFHPSS", "modifications": "bovine"}},
  "key": {"elastase I [1]": {"biological_target": "T1, elastase I (Sus scrofa, UniProt P00772)", "T1 construct": "purchased Worthington Biochemical Corporation 2280", "T1 sequence (P00772 27-266)": "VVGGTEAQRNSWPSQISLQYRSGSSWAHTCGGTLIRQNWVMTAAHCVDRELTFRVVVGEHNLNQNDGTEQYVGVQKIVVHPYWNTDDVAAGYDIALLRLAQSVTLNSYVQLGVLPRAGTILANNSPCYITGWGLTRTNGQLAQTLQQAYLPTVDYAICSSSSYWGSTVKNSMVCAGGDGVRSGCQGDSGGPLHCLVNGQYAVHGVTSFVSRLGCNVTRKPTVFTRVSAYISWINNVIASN", "assay": "Elastase I inhibitory activity of crystallin fractions", "assay_type": "biochemical", "method": "The bovine crystallin fractions were tested for ability to inhibit elastase I activity."}, "[2]": {"test_system": "full thickness 12 mm wound", "assay": "Wound healing assay (Example 3.6)", "assay_type": "in vivo, male Lewis rats", "settings": "for Wound areas: mg/wound: Wound heal 1 0.01, Wound heal 2 0.1, Wound heal 3 1.0, Aloe vera 20; for wounds larger than wounds on rats receiving buffered saline only: 1.0 mg/wound", "method": "Thirty male Lewis rats were divided into 5 groups of 6 rats as outlined below in Table 7. Rats were age and weight matched. Rats were permitted rodent diet and water ad libitum throughout the study.\nThe animals were weighed two days before the start of the trial and weights grouped from lightest to heaviest. Animals were then randomly assigned to groups based on body weights, using 5×5 Latin squares so that group means were as similar as possible.\nApproximately 30 minutes before wounding, each animal was given a subcutaneous injection of Temgesic at the base of the neck (0.075 mg/kg body weight). Each animal was anaesthetised using 3% halothane in oxygen. Once the pedal reflexes had been abolished, the animals were shaved from the base of the skull to the hind limb area using electric clippers. The skin on each rat was disinfected using 0.5% chlorhexidine in 70% ethanol. For each animal, the distance from the base of the skull to the top of the hip joint was measured and the wound position marked with a black felt tip pen, 6 cm below the base of the skull along the spinal axis.\nUsing asceptic techniques a full thickness incision was made at this position using a sterile 12 mm biopsy punch. Any bleeding was removed using cotton swabs. Care was taken that the punch was dry and that no debris (eg., skin, hair) entered the wounds. […] After photography of each wound using a Canon Digital EOS 20D camera with a F2.8 Macro lens, an aliquot of the sample was applied to the wounds on the rats in Groups A, B, D and E using a Gilson Microman CP 100 positive displacement pipette. The biopsy punch was wiped inside with a swab soaked in sterile saline to remove any tissue fluids and/or debris. The punch was then immersed in 70% ethanol before use on the next animal.\nFor applications and photographs after day 1 the animals were restrained without being anaesthetised.\n(§1) Body weights were measured on days 1, 3, 5, 7, 9, 11, 13, 15, 17, 19, 21 and 23 and deviations from original body weights (on day 1) calculated for each animal. On the same days, photographs were taken using a Canon Digital Eos 20D with a F2.8 Macro lens. Photographs were downloaded and wound areas measured using NIH Image J 1.633u software (National Institutes of Health (NIH), Rockville Pike, Bethesda, Md., United States). A laser speckle image was also taken at the same time as each space photograph was taken. Animals were weighed every second day when the photographic record of wound closure rate was also made.\nThe redness and swelling of each wound were individually scored from visual observation. These were scored on a scale of 0-3 as follows:\nDescriptive statistics were evaluated. […] Major analyses were performed on all data points collected. Preliminary analyses were undertaken on control wounds only using t-tests. Univariate ANOVAs were used to assess differences between treatment and controls and samples nested within treatments. A separate ANOVA assessed whether there was a dose response using the treatment samples only. Assumptions for normality were tested using q-q plots on studentized residuals and heterogeneity of variances were tested using Levene's tests. SPSS 11 for Mac OSX was used for assumption testing and statistical analysis."}, "rat aortic ring": {"test_system": "rat aortic ring", "assay": "Rat aortic ring angiogenesis assay (Example 4.3)", "assay_type": "cell-based, Lewis rat", "settings": "second study, 200 μg/mL", "method": "Four separate studies were carried out to determine the angiogenic effect of crystallin preparations. Each sample was assayed in triplicate. A positive control (VEGF) and a vehicle control containing PBS was also run in triplicate. […] Preliminary statistical significance was assessed with an independent Student t-test at α<0.05. Graphical representation of averages +/− standard errors were determined.\nThe first study investigated the angiogenic potential of bovine fractions prepared by gel filtration analysis as described in Example 3.2. As described in that Example, the alpha fraction contained αA and αB crystallin, the β H fraction contained all β crystallins, the β L1 fractions contained a sub-fraction of beta crystallins and a high content of βB2 crystallin and beta B3 crystallin and the beta L2 fraction contained only βB2 crystallin and βA3 crystallin.\n(§2) The second study investigated the angiogenic potential of purified crystallin proteins. Briefly, βB3 crystallin was prepared by heating (97-99° C. for 3 minutes, supernatant collected by centrifugation) and was essentially homogenous. Alpha A crystallin and αB crystallin samples were prepared by ion exchange chromatography as described above and were also essentially homogenous. The Wound Heal 1-3 preparations were also tested in this study.\nThe third study investigated the angiogenic potential of ovine crystallin proteins compared to their bovine equivalents. Both bovine and ovine crystallin proteins were purified essentially to homogeneity by RP. HPLC using a C4 column, as described below in Example 5. Homogeneity was confirmed by SDS-PAGE. The effect of elastase I treatment of βB2 crystallin was also investigated by comparing the angiogenic potential of intact βB2 crystallin (i.e. undigested) with elastase I digested βB2 crystallin. Elastase I treatment releases the N-terminal and C-terminal extensions of the crystallin protein leaving a globular protein that is monomeric.\nIn the final study, ovine βB2 crystallin was tested alone or in combination with indoleamine 2,3-dioxygenase (IDO) and ovine alpha B crystallin was tested alone or in combination with tryptophan dioxygenase (TDO)\nBriefly, in each study, a single Lewis rat was euthanised and its aorta transferred to a 15 mL Falcon tube containing 10 mL of MCBD-131 medium and stored on ice. After transferring the aorta to a 92×17 mm petri dish containing 10 mL of ice cold MCDB-131, the outer fatty tissue was removed under an Olympus SZ-60 Dissecting microscope. This was undertaken with fibre optic lamp illumination. The aorta was then cut into sequential rings approximately 2 mm in size. Connective tissue was removed with micro scissors and forceps from the outside of the individual rings. Clean rings were stored in a separate petri dish in sterile MCDB-131 medium. Rings were pre-incubated overnight at 37° C. in an atmosphere of 97% air/3% CO2.\nTo prepare gel sandwiches, 75 mg of fibrinogen was added to 25 mL MCDB-131 medium and shaken gently on a rocker roller for 5 minutes. 3 ml of MCDB-131/fibrinogen solution was added to a 15 mL Falcon tube, followed by 10 μL of thrombin and quickly mixed. A 0.4 mL volume of this fibrinogen-thrombin solution was added to each well on a 24 well plate, 6 wells at a time. Aortic rings were then placed on the setting gel, pushed gently into the gel and left for 45 minutes. These steps were then repeated so each ring was covered with 0.4 mL of gel. Gels were left to set at room temperature. […] The plate was then placed in incubator (37° C., 97% air/3% CO2).\nCulture plate were examined daily for signs of infection (fungal growth or yellowing of media) in the wells using an inverted microscope. The growth of microvessels from their perimeters was also observed. Digital photographs of each well were taken seven days after plating using a Pixera PVC-100C digital camera mounted on an OLYMPUS CK-12 microscope and stored on a Macintosh Computer. […]"}, "elastase I [3]": {"biological_target": "T1, elastase I", "assay": "Chaperone activity: protection of elastase I from heat denaturation", "assay_type": "biochemical", "settings": "boiling water bath for 30 seconds", "method": "Bovine crystallin fractions were tested for ability to protect the proteases elastase I, trypsin and chymotrypsin from heat denaturation. Briefly, the proteases were heated in a boiling water bath for 30 seconds in the presence or absence of the crystallin fractions."}, "[4]": {"assay": "Body weight during wound healing assay (Example 3.6)", "assay_type": "in vivo, male Lewis rats", "settings": "PBS control returned by day 11", "method": "as §1"}, "[5]": {"assay": "Stability to heat treatment", "assay_type": "physicochemical", "method": "as §2"}},
  "data": [
    {"molecule": "B1", "values": [
      {"measurement": "elastase I inhibitory activity (in words)", "setting": "elastase I [1]", "result": "considerable elastase inhibitory activity"}
    ]},
    {"molecule": "B2", "values": [
      {"measurement": "Wound areas", "setting": "[2]; Day 1 (=100)", "result": 100},
      {"measurement": "Wound areas", "setting": "[2]; Day 3", "result": 93},
      {"measurement": "Wound areas", "setting": "[2]; Day 5", "result": 82},
      {"measurement": "Wound areas", "setting": "[2]; Day 7", "result": 76},
      {"measurement": "Wound areas", "setting": "[2]; Day 9", "result": 58},
      {"measurement": "Wound areas", "setting": "[2]; Day 11", "result": 34},
      {"measurement": "Wound areas", "setting": "[2]; Day 13", "result": 23},
      {"measurement": "Wound areas", "setting": "[2]; Day 15", "result": 15},
      {"measurement": "Wound areas", "setting": "[2]; Day 17", "result": 9},
      {"measurement": "Wound areas", "setting": "[2]; Day 19", "result": 5},
      {"measurement": "Wound areas", "setting": "[2]; Day 21", "result": 2.5},
      {"measurement": "Wound areas", "setting": "[2]; Day 23", "result": 1.4},
      {"measurement": "wounds larger than wounds on rats receiving buffered saline only", "setting": "[2]; day 3", "result": 8.8, "unit": "%"},
      {"measurement": "wounds larger than wounds on rats receiving buffered saline only", "setting": "[2]; day 7", "result": 7.7, "unit": "%"},
      {"measurement": "wounds larger than wounds on rats receiving buffered saline only", "setting": "[2]; day 11", "result": 28.7, "unit": "%"},
      {"measurement": "healing rate compared to Control group (PBS), in words", "setting": "[2]; rat, in vivo", "result": "inhibited the rate of healing"},
      {"measurement": "% of Control", "setting": "rat aortic ring; microvessel growth", "result": 93.09, "unit": "%"},
      {"measurement": "chaperone activity: protection of elastase I from heat denaturation (in words)", "setting": "elastase I [3]", "result": "Chaperone activity was observed"},
      {"measurement": "day by which mean body weight had returned to the starting (pre-wounding) weight", "setting": "[4]", "result": "≤ 12", "unit": "days"}
    ]},
    {"molecule": "B3", "values": [
      {"measurement": "increase in microvessel growth (stimulatory)", "setting": "rat aortic ring", "result": 21.83, "unit": "%"},
      {"measurement": "stability to heat treatment (in words)", "setting": "[5]", "result": "unstable to heat treatment"}
    ]}
  ]
}
